Measurements reported in paper PMC11865173, “Improving the hydrophilic microenvironment surrounding the catalytic site of fructosyltransferase enhances its catalytic ability” (Biotechnology Letters, 2025).

B1: SucC (Aspergillus niger) (protein)
chain: MQTRASVVIDYNVAPPNLSTLPNGSLFETWRPRAHVLPPNGQIGDPCLHYTDPSTGLFHVGFLHDGSGISSATTDDLATYKDLNQGNQVIVPGGINDPVAVFDGSVIPSGINGLPTLLYTSVSFLPIHWSIPYTRGSETQSLAVSSDGGSNFTKLDQGPVIPGPPFAYNVTAFRDPYVFQNPTLDSLLHSKNNTWYTVISGGLHGKGPAQFLYRQYDPDFQYWEFLGQWWHEPTNSTWGNGTWAGRWAFNFETGNVFSLDEYGYNPHGQIFSTIGTEGSDQPVVPQLTSIHDMLWVSGNVSRNGSVSFTPNMAGFLDWGFSSYAAAGKVLPSTSLPSTKSGAPDRFISYVWLSGDLFEQAEGFPTNQQNWTGTLLLPRELRVLYIPNVVDNALARESGASWQVVSSDSSAGTVELQTLGISIARETKAALLSGTSFTESDRTLNSSGVVPFKRSPSEKFFVLSAQLSFPASARGSGLKSGFQILSSELESTTVYYQFSNESIIVDRSNTSAAARTTDGIDSSAEAGKLRLFDVLNGGEQAIETLDLTLVVDNSVLEIYANGRFALSTWVRSWYANSTNISFFQNGVGGVAFSNVTVSEGLYDAWPDRQS
notes: codon-optimised synthetic gene downstream of alpha-factor in pPIC9K, secreted from Pichia pastoris GS115; purified by size exclusion chromatography; model covers residues 25-628; no tag mentioned

Key:
[1] = test system: T1, OC[C@H]1O[C@@](CO)(O[C@H]2O[C@H](CO)[C@@H](O)[C@H](O)[C@H]2O)[C@@H](O)[C@@H]1O; experiment: glucose release measured by biosensor, Michaelis-Menten nonlinear fit; format: biochemical, Aspergillus niger; details: 50 °C, pH 5.5, 5 min, transfructosylation
T1 construct: codon-optimised synthetic gene downstream of alpha-factor in pPIC9K, secreted from Pichia pastoris GS115; purified by size exclusion chromatography; model covers residues 25-628; no tag mentioned
Source text: (§1) glucose release measured by biosensor, Michaelis-Menten nonlinear fit on SucC

[2] = substrate: OC[C@H]1O[C@@](CO)(O[C@H]2O[C@H](CO)[C@@H](O)[C@H](O)[C@H]2O)[C@@H](O)[C@@H]1O; experiment: as above; format: biochemical, Aspergillus niger; details: 50 °C, pH 5.5, 5 min, transfructosylation
Source text: as §1

Molecule | Km [1] [mM] | kcat [1] [s⁻¹] | kcat/Km [1] [M⁻¹ s⁻¹] | Km [2] [mM] | kcat [2] [s⁻¹] | kcat/Km [2] [M⁻¹ s⁻¹]
SucC (Aspergillus niger; C66S) | 71.14 | 2.27 | 32 |  |  | 
B1 |  |  |  | 82.20 | 1.87 | 22.8
